According to US20240166729A1 (RAMOT AT TEL AVIV UNIVERSITY, published 2024):

How the values were obtained:
[1] = biological target: T1, His-tagged EspB (EspB-His), recombinant EPEC EspB (enteropathogenic E. coli (EPEC) O127:H6 …, UniProt Q05129 1-321); experiment: ELISA on coated EspB, 411 mM NaCl
T1 construct: also called recombinant EspB (full-length); full-length EspB
T1 sequence: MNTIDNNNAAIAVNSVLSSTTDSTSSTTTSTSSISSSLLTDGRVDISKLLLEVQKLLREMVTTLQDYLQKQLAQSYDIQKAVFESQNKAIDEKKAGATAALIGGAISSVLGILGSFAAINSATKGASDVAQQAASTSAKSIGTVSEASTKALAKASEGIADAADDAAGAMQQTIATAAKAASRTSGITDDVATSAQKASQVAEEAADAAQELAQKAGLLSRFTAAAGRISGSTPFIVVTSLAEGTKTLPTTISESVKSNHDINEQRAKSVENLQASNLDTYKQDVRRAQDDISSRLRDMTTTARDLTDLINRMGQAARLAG

[2] = biological target: T1, His-tagged EspB (EspB-His), recombinant …; experiment: ELISA on coated EspB, 45.6, 68.5 and 137 mM NaCl (one reading for the bundle)
[3] = biological target: T1, His-tagged EspB (EspB-His), recombinant …; experiment: indirect ELISA, 5 ug/ml EspB coated, serial dilution of the antibody, goat anti-human H+L HRP
Salmonella EspB homolog = biological target: T2, Salmonella EspB homolog (Salmonella enterica serovar Typhimurium, UniProt D0ZV21 1-409); experiment: western blot of bacterial supernatant with mAb-EspB-B7
T2 sequence: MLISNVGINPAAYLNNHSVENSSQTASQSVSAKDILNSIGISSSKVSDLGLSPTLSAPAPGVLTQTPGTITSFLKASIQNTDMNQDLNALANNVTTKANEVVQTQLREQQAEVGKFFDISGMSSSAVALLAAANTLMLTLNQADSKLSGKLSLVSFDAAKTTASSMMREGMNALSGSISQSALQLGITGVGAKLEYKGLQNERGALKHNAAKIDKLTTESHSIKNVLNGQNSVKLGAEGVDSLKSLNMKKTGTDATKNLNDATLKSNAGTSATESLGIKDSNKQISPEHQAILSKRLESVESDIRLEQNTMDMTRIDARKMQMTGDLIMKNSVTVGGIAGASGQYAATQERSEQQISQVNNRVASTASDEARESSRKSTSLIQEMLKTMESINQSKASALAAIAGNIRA

EHEC EspB = biological target: T3, EHEC EspB; experiment: as above
T3 construct: also called EspB of enterohemorrhagic E. coli

[4] = biological target: T4, native EspB of wild-type EPEC; experiment: western blot of normalized culture supernatants after SDS-PAGE, mAb-EspB-B7 as primary antibody, anti-human IgG HRP
T4 construct: also called EPEC EspB

C. rodentium EspB = biological target: T5, C. rodentium EspB (Citrobacter rodentium DBS100); experiment: as above
T5 construct: also called EspB of Citrobacter rodentium

[5] = biological target: T1, His-tagged EspB (EspB-His), recombinant …; experiment: ELISA on coated EspB, antibody in 0.1 M citric acid buffer, pH 7.4, 7.0, 6.6 and 5.6 (one reading for the bundle of four curves)
[6] = biological target: T1, His-tagged EspB (EspB-His), recombinant …; experiment: ELISA (FIG. 4A) and SPR (FIG. 4B): Biacore, EspB amine-coupled on chip, mAb 10-90 nM, steady-state fit
[7] = biological target: T1, His-tagged EspB (EspB-His), recombinant …; experiment: ELISA on coated EspB, 274 mM NaCl
[8] = biological target: T1, His-tagged EspB (EspB-His), recombinant …; experiment: ELISA on coated EspB, antibody diluted in 3% milk in PBS or in goat or horse serum with 1% human serum (one reading for the bundle of three curves)

B1: mAb-EspB-B7 (antibody, V domains shown)
VH: EVQLLESGGGLVQPGGSLRLSCAASGFTFSHYAMNWVRQAPGKGLEWVSAINSNGDSTYYPDTVKDRFTISRDNSKNTLYLQMNSLRAEDTAVYYCARDRRAGYFDYWGQGTLVTVSS
VL: DIVLTQPPSASGTPGQRVTISCSGSRDNIGKNYVSWYQQLPGTAPKLLIYRNNQRPSGVPDRFSGSKSGTSASLAISGLRSEDEADYYCSAWDTSLNAYVFGPGTQLTVL
notes: also called mAb-B7; B7 IgG1
[1]
  EC50 (read off the curve): ~10 nM
[2]
  EC50 (read off the curve): ~3 nM
[3]
  EC50 (read off the curve): ~8 nM
Salmonella EspB homolog
  binding result: no binding
EHEC EspB
  binding result: binds
[4]
  binding result: binds
C. rodentium EspB
  binding result: binds
[5]
  EC50 (read off the curve): ~20 nM
[6]
  Kd: 17.4 nM
[7]
  EC50 (read off the curve): ~8 nM
[8]
  EC50 (read off the curve): ~3 nM
